Results as given in the supplement of paper PMC7877785.
± gives the uncertainty stated by the source.

Assay: self-splicing fitness, log relative to wild type (ln ratio); higher = more splicing; Tetrahymena group I intron in knt gene, E. coli kanamycin selection, DiMSum; sequences stand for … in CUCUCU…GGAGGGAAAAGUUAUCAGGCAUGCACCUGGUAGCUAGUCUUUAAACCAAUAGAUUGCAUCGGUUUAAAAGGCAAGACCGUCAAAUUGCGGGAAAGGGGUCAACAGCCGUUCAGUACCAAGUCUCAGGGGAAACUUUGAGAUGGCCUUGCAAAGGGUAUGGUAAUAAGCUGACGGACAUGGUCCUAACCACGCAGCCAAGUCCUAAGUCAACAGAUCUUCUGUUGAUAUGGAUGCAGUUCACAGACUAAAUGUCGGUCGGGGAAGAUGUAUUCUUCUCAUAAGAUAUAGUCGGACCUCUCCUUAAUGGGAGCUAGCGGAUGAAGUGAUGCAACACUGGAGCCGCUGGGAACUAAUUUGUAUGCGAAAGUAUAUUGAUUAGUUUUGGAGUACUCGUGGUCG
Method in brief: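 Fitness was computed with DiMSum as the error-weighted combination of replicate fold changes, kanamycin versus none, each normalised to wild type. The library randomised all eight intron nucleotides of the P1ex region, with the intron placed in the knt kanamycin-resistance gene on pET-22b(+) in E. coli BL21(DE3). Six replicate transformations were grown overnight at 37°C or 30°C on LB agar with or without 25 μg/mL kanamycin, plus 100 μg/mL carbenicillin, 50 μM IPTG and 0.2% rhamnose. Pooled colonies were amplicon-sequenced on an Illumina HiSeq 2500.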

| Sequence | self-splicing fitness (ln) (30 °C) | self-splicing fitness (ln) (37 °C) |
| --- | --- | --- |
| GUCUAGCAAUAUUACGCCGG | -3.17 ± 0.33 | -2.31 ± 0.33 |
| AUGCAGCAAUAUUACGGACC | -1.52 ± 0.17 | -0.744 ± 0.17 |
| CAGAAGCAAUAUUACGCCAC | – | -0.904 ± 0.4 |
| AUCCAGCAAUAUUACGAGCU | -2.2 ± 0.096 | -2.03 ± 0.17 |
| CUGAAGCAAUAUUACGGUUA | -4.2 ± 0.35 | -2.52 ± 0.28 |
| CAGAAGCAAUAUUACGUCGC | -3.55 ± 0.23 | -2.76 ± 0.28 |
| CAGCAGCAAUAUUACGUGAU | -3.66 ± 0.15 | -1.78 ± 0.14 |
| GCGUAGCAAUAUUACGACCU | -0.0292 ± 0.22 | -0.575 ± 0.34 |
| CACAAGCAAUAUUACGCCGA | -3.39 ± 0.26 | -0.917 ± 0.15 |
| UUUGAGCAAUAUUACGUCCC | -2.9 ± 0.22 | -2.15 ± 0.33 |
| AUUCAGCAAUAUUACGGCCG | -1.09 ± 0.3 | -0.945 ± 0.3 |
| GUCGAGCAAUAUUACGGGAA | -2.39 ± 0.34 | -1.63 ± 0.37 |
| CAGGAGCAAUAUUACGAAUU | -3.43 ± 0.35 | -2.43 ± 0.3 |
| AGUAAGCAAUAUUACGCACG | -1.43 ± 0.1 | -0.219 ± 0.12 |
| CGUAAGCAAUAUUACGAGUC | -2.82 ± 0.4 | -1.92 ± 0.34 |
| UGACAGCAAUAUUACGCCGA | -1.44 ± 0.17 | -0.0813 ± 0.17 |
| CCAGAGCAAUAUUACGUGCU | -3.37 ± 0.24 | -3.56 ± 0.42 |
| CUAGAGCAAUAUUACGACUA | -1.97 ± 0.12 | -1.26 ± 0.15 |
| AUGCAGCAAUAUUACGGUGU | -3.52 ± 0.16 | -1.63 ± 0.14 |
| AGUCAGCAAUAUUACGACCU | -0.358 ± 0.081 | 0.103 ± 0.11 |
| AAUAAGCAAUAUUACGUGAC | -2.18 ± 0.2 | -2.76 ± 0.35 |
| AGCUAGCAAUAUUACGUACC | -0.329 ± 0.19 | -0.483 ± 0.25 |
| AGUUAGCAAUAUUACGCGUU | -1.32 ± 0.12 | -0.816 ± 0.15 |
| AACAAGCAAUAUUACGAGUA | -1.5 ± 0.078 | -0.465 ± 0.08 |
| GCAGAGCAAUAUUACGUGUC | -4.24 ± 0.26 | -2.16 ± 0.21 |
| GUCGAGCAAUAUUACGCCCU | – | -0.627 ± 0.41 |

| Sequence | self-splicing fitness (ln) (30 °C) | self-splicing fitness (ln) (37 °C) |
| --- | --- | --- |
| CUGGAGCAAUAUUACGCGGU | -1.94 ± 0.1 | -2.46 ± 0.24 |
| CUAUAGCAAUAUUACGUGCU | -3.61 ± 0.33 | -2.56 ± 0.32 |
| GCGCAGCAAUAUUACGUCGG | -1.4 ± 0.097 | -0.816 ± 0.13 |
| CAGAAGCAAUAUUACGCGAG | -2.62 ± 0.097 | -1.49 ± 0.096 |
| GAAGAGCAAUAUUACGGCCU | -1.15 ± 0.14 | -0.824 ± 0.19 |
| ACAGAGCAAUAUUACGGCCU | -3.08 ± 0.29 | -2.6 ± 0.25 |
| UUAAAGCAAUAUUACGUAAG | -0.67 ± 0.082 | -0.258 ± 0.11 |
| CGCCAGCAAUAUUACGCGCG | -3.57 ± 0.16 | -3.7 ± 0.27 |
| AUCUAGCAAUAUUACGCGAC | -2.29 ± 0.4 | -0.43 ± 0.39 |
| GAGAAGCAAUAUUACGAACG | -0.734 ± 0.12 | -0.343 ± 0.17 |
| AUCGAGCAAUAUUACGUAAG | -2.16 ± 0.44 | -1.61 ± 0.3 |
| UUAGAGCAAUAUUACGCCCA | -1.04 ± 0.19 | -0.676 ± 0.3 |
| UGUCAGCAAUAUUACGCGCU | -0.874 ± 0.17 | -0.182 ± 0.17 |
| AUCAAGCAAUAUUACGACUC | -0.467 ± 0.1 | -0.0986 ± 0.14 |
| CCGAAGCAAUAUUACGGUAG | -2.87 ± 0.11 | -1.3 ± 0.095 |
| GCGGAGCAAUAUUACGUGAG | -2.51 ± 0.12 | -2.01 ± 0.15 |
| UGUAAGCAAUAUUACGGGAG | -3.47 ± 0.24 | -1.94 ± 0.25 |
| CUGCAGCAAUAUUACGGGCC | – | -1.2 ± 0.5 |
| CCUAAGCAAUAUUACGGGAC | -3.86 ± 0.23 | -2.7 ± 0.22 |
| UUACAGCAAUAUUACGUUGU | -2.98 ± 0.13 | -2.57 ± 0.16 |
| AGUGAGCAAUAUUACGCCGG | -2.67 ± 0.26 | -1.81 ± 0.38 |
| CGGUAGCAAUAUUACGGAUA | – | -1.54 ± 0.3 |
| GAUGAGCAAUAUUACGUUAC | -2.14 ± 0.13 | -0.982 ± 0.23 |
| GAAAAGCAAUAUUACGUCAA | -2.62 ± 0.19 | -1.11 ± 0.14 |
| GUUCAGCAAUAUUACGUCUU | -0.624 ± 0.056 | -0.758 ± 0.064 |
| AUUCAGCAAUAUUACGGUCC | -1.46 ± 0.11 | -0.22 ± 0.12 |

| Sequence | self-splicing fitness (ln) (30 °C) | self-splicing fitness (ln) (37 °C) |
| --- | --- | --- |
| AGUGAGCAAUAUUACGCGAC | -1.74 ± 0.32 | -1.46 ± 0.31 |
| UGACAGCAAUAUUACGGGUG | -0.383 ± 0.052 | -0.732 ± 0.074 |
| GGGAAGCAAUAUUACGCGCA | -0.0561 ± 0.11 | -0.304 ± 0.13 |
| AGGGAGCAAUAUUACGCGAU | -2.89 ± 0.29 | -1.84 ± 0.47 |
| GUAUAGCAAUAUUACGCGAU | -2.03 ± 0.24 | -1.73 ± 0.26 |
| CCAAAGCAAUAUUACGGGAG | -3.08 ± 0.18 | -2.78 ± 0.26 |
| AAUCAGCAAUAUUACGAGCU | -0.908 ± 0.093 | -0.226 ± 0.093 |
| CCCCAGCAAUAUUACGGACG | -1.67 ± 0.096 | -0.944 ± 0.13 |
| GGAAAGCAAUAUUACGGUCC | -2.06 ± 0.25 | – |
| CAGGAGCAAUAUUACGCCUG | -3.09 ± 0.29 | -1.01 ± 0.22 |
| UUCCAGCAAUAUUACGUAAU | -2.36 ± 0.11 | -0.639 ± 0.12 |
| CUGUAGCAAUAUUACGAACG | 0.0721 ± 0.084 | 0.403 ± 0.1 |
| CUAUAGCAAUAUUACGCAUG | -2.02 ± 0.093 | -0.942 ± 0.095 |
| GGUCAGCAAUAUUACGCGCG | -0.298 ± 0.092 | -0.546 ± 0.11 |
| GGGGAGCAAUAUUACGGAAA | – | -0.21 ± 0.41 |
| UCCCAGCAAUAUUACGGGUA | -0.837 ± 0.065 | -0.432 ± 0.071 |
| UCCGAGCAAUAUUACGUUUU | -3.83 ± 0.25 | -0.687 ± 0.15 |
| AGGAAGCAAUAUUACGAAGU | -2.15 ± 0.24 | -1.82 ± 0.33 |
| GUUCAGCAAUAUUACGCAGG | -1.35 ± 0.14 | -1.28 ± 0.17 |
| GUUCAGCAAUAUUACGACUG | -3.57 ± 0.28 | -0.988 ± 0.14 |
| AGAUAGCAAUAUUACGUCGA | -0.721 ± 0.13 | 0.375 ± 0.13 |
| CGGUAGCAAUAUUACGGUCG | -2.62 ± 0.21 | -1.65 ± 0.25 |
| CUACAGCAAUAUUACGUAUG | -2.21 ± 0.09 | -1.35 ± 0.091 |
| UGUAAGCAAUAUUACGCACG | -0.966 ± 0.092 | -0.234 ± 0.11 |
| AAGUAGCAAUAUUACGUCAA | -2.25 ± 0.1 | -0.583 ± 0.083 |
